Laboratory results reported in PMC6625990, “Structural underpinnings of Ric8A function as a G-protein α-subunit chaperone and guanine-nucleotide exchange factor” (Nature Communications, 2019).
Residue numbers refer to the chain shown, from its start. Names and notes keep the numbering of the source. Like-named read-outs stand apart in the source and are kept apart here.

B1: Ric8A1–426: bovine Ric8A construct lacking the C-terminal region, residues 1–426 (protein)
chain: MEPRAVADALETGEEDVVMEALRAYNRENSQSFTFDDAQQEDRKRLAKLLVSVLEQGLPPSRRVIWLQSIRILSRDRSCLDSFTSRRSLQALACYAGISASQGSVPEPLNMDVVLESLKCLCNLVLSSPVAQALAAEAGLVVRLAERVGLCRQSSFPHDVQFFDLRLLFLLTALRTDVRQQLFQELQGVRLLTRALELTLGMTEGERHPELLPPQETERAMEILKVLFNITFDSIKREVDEEDAALYRHLGTLLRHCVMLAAAGDRTEELHGHAVNLLGNLPVKCLDVLLTLEPHEGSLEFLGVNMDVIRVLLSFMEKRLHQTHRLKESVAPVLSVLTECARMHRPARKFLKAQVLPPLRDVRTRPEVGELLRNKLVRLMTHLDTDVKRVAAEFLFVLCSESVPRFIKYTGYGNAAGLLAARGLMA
modifications: left off: His6, N-terminal, state not stated
B2: A173W: A173 mutant of Ric8A1–492, printed A173W in figures and source data, A173F in text (protein)
chain: MEPRAVADALETGEEDVVMEALRAYNRENSQSFTFDDAQQEDRKRLAKLLVSVLEQGLPPSRRVIWLQSIRILSRDRSCLDSFTSRRSLQALACYAGISASQGSVPEPLNMDVVLESLKCLCNLVLSSPVAQALAAEAGLVVRLAERVGLCRQSSFPHDVQFFDLRLLFLLTFLRTDVRQQLFQELQGVRLLTRALELTLGMTEGERHPELLPPQETERAMEILKVLFNITFDSIKREVDEEDAALYRHLGTLLRHCVMLAAAGDRTEELHGHAVNLLGNLPVKCLDVLLTLEPHEGSLEFLGVNMDVIRVLLSFMEKRLHQTHRLKESVAPVLSVLTECARMHRPARKFLKAQVLPPLRDVRTRPEVGELLRNKLVRLMTHLDTDVKRVAAEFLFVLCSESVPRFIKYTGYGNAAGLLAARGLMAGGRPEGQYSEDEDTDTDEYKEAKASINPVTGRVEEKPPNPMEGMTEEQKEHEAMKLVNMFDKLSRH
modifications: left off: His6, N-terminal, state not stated
B3: N123E: N123E mutant of Ric8A1–492 (protein, UniProt Q5E9J8 1-492, looked up, variant N123E)
chain: B2 chain with N123E, F173A
modifications: residues 1-492
B4: F169R: F169R mutant of Ric8A1–492 (protein)
chain: B2 chain with F169R, F173A
modifications: left off: His6, N-terminal, state not stated
B5: Ric8A1–452: bovine Ric8A construct, residues 1–452 (protein)
chain: MEPRAVADALETGEEDVVMEALRAYNRENSQSFTFDDAQQEDRKRLAKLLVSVLEQGLPPSRRVIWLQSIRILSRDRSCLDSFTSRRSLQALACYAGISASQGSVPEPLNMDVVLESLKCLCNLVLSSPVAQALAAEAGLVVRLAERVGLCRQSSFPHDVQFFDLRLLFLLTALRTDVRQQLFQELQGVRLLTRALELTLGMTEGERHPELLPPQETERAMEILKVLFNITFDSIKREVDEEDAALYRHLGTLLRHCVMLAAAGDRTEELHGHAVNLLGNLPVKCLDVLLTLEPHEGSLEFLGVNMDVIRVLLSFMEKRLHQTHRLKESVAPVLSVLTECARMHRPARKFLKAQVLPPLRDVRTRPEVGELLRNKLVRLMTHLDTDVKRVAAEFLFVLCSESVPRFIKYTGYGNAAGLLAARGLMAGGRPEGQYSEDEDTDTDEYKEAKASI
modifications: left off: His6, N-terminal, state not stated

How the values were obtained:
[1] = DSF thermostability of Ric8A constructs and Ric8A1–492 mutants (protein alone); type: physicochemical, bovine; conditions: for Tm: Sypro Orange, protein alone 0.5 mg/ml, 20 mM Tris-HCl pH 7.5, 150 mM KCl, 5% glycerol, 1 mM TCEP, 1 °C/minute, mean ± SD (n = 3)
Procedure: Stabilities of Ric8A constructs with and without peptide ligands were assessed using differential scanning fluorimetry (DSF), in which an increase in fluorescence of the Sypro Orange dye is measured. Ric8A1–492, Ric8A1–452 and Ric8A1–426 in 20 mM Tris-HCl (pH 7.5) buffer containing 150 mM KCl, 5% glycerol, and 1 mM TCEP with and without peptide were used at a final concentration of 0.5 mg/ml and were supplemented with a 1000-fold dilution of Sypro Orange dye (Invitrogen). Temperature was increased at 1 °C/minute and fluorescence signals were recorded using real-time PCR (C1000 Touch thermal cycler, Bio Rad), with the cycler set to FRET mode and the excitation wavelength set at 450–490 nm and the emission wavelength at 560–580 nm.

[2] = tested on: Gαt333–350; test: BLI: Ric8A1–492 and its mutants binding to biotinylated Gαt333–350; conditions: for binding to Gαt333–350 (in words): BLI; for Kd: BLI steady state
Procedure: (§1) An Octet RED96 system and streptavidin (SA)-coated biosensors (FortéBio, Menlo Park, CA) were used to measure association and dissociation kinetics for Gα peptides or the full-length Avi-tagged Gαt in relation to Ric8A1–492, Ric8A1–452, and Ric8A1–426. To obtain the Avi-tagged Gαt, Gαt was cloned into modified pET21a vector with the N-terminal His6-tag followed by the Avi tag and TEV cleavage site[59]. The Avi-tagged I340Q/N343H mutant of Gαt was prepared by QuikChange protocol. BL21(DE3) cells for expression of the Avi-tagged Gαt were grown in 2TY media supplemented with biotin (10 mg/liter), induced at OD600 of 0.6 with 50 µM IPTG and further grown overnight at 16 °C. Binding studies were performed in 20 mM Tris, 150 mM KCl, 5% glycerol, 1 mM TCEP, 0.5 mg/ml BSA, pH 8.0. All steps were performed at 26 °C, with biosensors stirred into 0.2 ml of sample in each well at 1000 rpm, and at a data acquisition rate of 5.0 Hz. N-terminally biotinylated Gαt333–350, Gαs363–380, C1 peptide and C2 peptide were loaded onto SA sensors at a concentration of 0.05, 0.05, 0.005, and 0.01 mg/ml for 40–90 seconds. Data for association and dissociation phases of the assay were collected as shown in Fig. 1b and Supplementary Figs. 8, 11, 12, and 14. To correct for baseline drift and non-specific binding, reference sensors lacking bound Gα peptide were used in the BLI assays with Ric8A proteins at the highest concentrations. Kinetic data fitting was performed using FortéBio Data Analysis software 10.0. For each concentration of Ric8A1–492, dissociation rate constant (kd) values were calculated from the corresponding dissociation phases of the curves. These kd values were used to calculate the association rate constant (ka) values from the association phases for each concentration according to the equation1 ka=kobserved-kd∕Ric8A1-492 The average ka and kd were calculated as means of the individual ka and kd values for all curves. Equilibrium dissociation constant KD was calculated as mean kd/mean ka. Steady-state data fitting was performed using the GraphPad Prism 7 software with the equation for one site specific binding.

[3] = tested on: Gαt; test: BLI: Ric8A1–492 and its mutants binding to full-length Avi-tagged Gαt
Procedure: as §1

[4] = tested on: Gαi; test: GTPγS binding to Gαi (GDP/GTPγS exchange, GEF activity of Ric8A constructs); type: biochemical; conditions: for Rate of GDP/GTPγS exchange reaction on Gαi: same conditions
Procedure: The rates of GTPγS binding to Gαi in the absence or presence of Ric8A1–492 (Ric8A1–452) were measured by following the increase in fluorescence of Gαi tryptophan. Gαi (1 µM) was mixed with GDP (1 µM) in a fluorescence cuvette, in 20 mM Tris-HCl (pH 8.0) buffer containing 150 mM NaCl, 5% glycerol, 1 mM TCEP and 10 mM MgCl2, and incubated for 2 min. The binding reaction was initiated by addition of Ric8A1–492 or Ric8A1–452 (1 µM each) and/or and GTPγs (10 µM). Fluorescence at 340 nm was monitored with the excitation set at 295 nm. Data were fit to an equation for one phase association using the GraphPad Prism 7.05 software.

[5] = DSF, protein alone, source data, mean of replicates
[6] = DSF, protein alone, source data, replicate 1
[7] = DSF, protein alone, source data, replicate 2
[8] = DSF, protein alone, source data, replicate 3
[9] = DSF, protein alone, source data, replicate 4
[10] = source data, experiment 1, read-out: KD (uM), Gαt333-350
[11] = source data, experiment 2, read-out: KD (uM), Gαt333-350
[12] = source data, experiment 3, read-out: KD (uM), Gαt333-350
[13] = source data, mean of replicates, read-out: Mean KD, Gαt333-350
[14] = BLI steady state, source data, experiment 1, read-out: KD (uM), Gαt
[15] = BLI steady state, source data, experiment 2, read-out: KD (uM), Gαt
[16] = BLI steady state, source data, experiment 3, read-out: KD (uM), Gαt
[17] = BLI steady state, source data, mean of replicates, read-out: mean KD, Gαt

Molecule | Tm ([1]; DSF) [°C] | mean Tm [1, 5] [C] | Tm (C ) [1, 6] [C] | Tm (C ) [1, 7] [C] | Tm (C ) [1, 8] [C] | Tm (C ) [1, 9] [C] | binding to Gαt333–350 (in words) [2] | Kd [2, 10] [µM] | Kd [2, 11] [µM] | Kd [2, 12] [µM] | Kd [2, 13] [µM] | binding to Gαt (in words) ([3]; BLI) | Kd [3, 14] [µM] | Kd [3, 15] [µM] | Kd [3, 16] [µM] | Kd [3, 17] [µM] | other results
B1 | 36.5 ± 1.1 | – | – | – | – | – | – | – | – | – | – | – | – | – | – | – | mean Tm ([1]; Suppl Fig 14B DSF, mean of 3 experiments, SD 1.1): 36.5 C
B2 | – | 45.6 | 45.57 | 45.54 | 45.74 | 45.49 | severely impaired the interaction | 23.8 | 26.9 | 26.8 | > 10 | severely reduced affinity | 11.2 | 11.5 | 15.1 | > 10 | Kd ([2]; mean ± SD, n = 3, ND – not detectable, read-out: KD (μM) Gαt333–350): > 10 µM; Kd ([3]; BLI steady state, mean ± SD, n = 3, ND – not detectable, read-out: KD (μM) Gαt): > 10 µM; Kd ([3]; BLI, representative curve (Fig. 3g), read-out: KD, steady-state binding curve, Gαt): > 10 µM
B3 | – | 46.7 | 46.78 | 46.59 | 46.65 | 46.83 | ablated the binding | – | – | – | – | no Gαt binding was detected | – | – | – | – | –
B4 | – | 45.6 | 45.84 | 45.62 | 45.65 | 45.38 | severely impaired the interaction | 2.04 | 1.89 | 1.45 | 1.8 | severely reduced affinity | 2.04 | 1.84 | 1.66 | 1.8 | Kd ([2]; source data, experiment 4, read-out: KD (uM), Gαt333-350): 1.89 µM
B5 | 45.5 ± 0.1 | – | – | – | – | – | – | – | – | – | – | – | – | – | – | – | Tm ([1]; DSF, listed as Ric8A1-452): 45.5 °C; Rate of GDP/GTPγS exchange reaction on Gαi, mean ([4]; Gαi 1 µM, GDP 1 µM, Ric8A construct 1 µM, GTPγS 10 µM, 20 mM Tris-HCl pH 8.0, 150 mM NaCl, 5% glycerol, 1 mM TCEP, 10 mM MgCl2, tryptophan fluorescence ex 295 nm, em 340 nm, one phase association fit, mean): 0.03238; Rate of GDP/GTPγS exchange reaction on Gαi ([4]; replicate 1): 0.03221; Rate of GDP/GTPγS exchange reaction on Gαi ([4]; replicate 2): 0.04368; Rate of GDP/GTPγS exchange reaction on Gαi ([4]; replicate 3): 0.02126
